Assay results published in US7972771B2, “Human brain carboxypeptidase B” (priority 1999, dated 2011).

Key:
40 kDa protease = target: T1, 40 kDa protease (Homo sapiens, UniProt Q96IY4, A169T/A260V/E345D/I347T/R257S); experiment: Inhibition of natural brain APP degradation by the 40 kDa protease (Western blot, anti Aβ 1/14 or anti APP-CT antibody); format: biochemical; conditions: 37° C., 3 h
T1 construct: The 40 kDa proteolytic activity from fraction 19 was trapped in the column and recovered by elution; from tissue; host or cells: human hippocampus (autopsy brain)
T1 sequence (Q96IY4 23-360 isoform Q96IY4-2 A169T/R220S/A223V/E308D/I310T limits assumed): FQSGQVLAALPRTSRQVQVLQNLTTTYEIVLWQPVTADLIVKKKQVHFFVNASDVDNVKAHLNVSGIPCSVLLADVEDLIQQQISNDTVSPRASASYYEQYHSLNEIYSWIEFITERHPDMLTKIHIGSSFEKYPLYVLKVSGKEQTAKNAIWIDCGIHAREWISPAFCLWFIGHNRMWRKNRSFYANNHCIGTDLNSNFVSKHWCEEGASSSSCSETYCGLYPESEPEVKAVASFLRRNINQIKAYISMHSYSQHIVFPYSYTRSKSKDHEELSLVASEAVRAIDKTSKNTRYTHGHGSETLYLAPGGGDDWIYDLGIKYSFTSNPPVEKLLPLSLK
Protocol: After separation of proteins by SDS-PAGE, proteins on the gel was blotted onto a Hybond C nitrocellulose membrane (Amersham Pharmacia, UK), after which non-specific binding was blocked by immersing the membrane in 5% bovine serum albumin for 1 h in Tris-buffered saline: 100 mM Tris-HCl (pH 7.5), 140 mM NaCl and 0.1% Tween 20. The membrane next was washed for 45 min with three changes of the above buffer then incubated at 4° C. for 16 h with the first antibody (anti Aβ 1/14 antibody) appropriately diluted with Tris-buffered saline. After again washing it as above, the membrane was incubated at room temperature for 1 h with a horseradish peroxidase-labeled anti rabbit second antibody diluted 1:2000. After the washing, signals were detected on X-ray film using an ECL chemiluminescence detection system (Amersham Pharmacia, UK).

[1] = Stability of proteolytic activity of native-PAGE fraction; format: physicochemical
Excerpt: Of the 61 fractions analyzed, fraction 19 with a molecular mass of about 40 kDa and fraction 11 with a molecular mass of about 30 kDa had similar proteolytic activities. […] Fraction 19 with the 40 kDa molecular mass with proteolytic activity therefore was further purified.

synthetic Aβ 1-42 = experiment: Carboxypeptidase digestion of synthetic Aβ 1-42 (Western blot); format: biochemical; conditions: 0.01 pM to 0.2 pM enzyme, 0.1 pM substrate, 37° C., 16 hours
Excerpt: (§1) In Western blot analysis, low-molecular weight peptides (in which several amino acids have shifted) can be confirmed by anti-Aβ-N-terminus antibody regarding the Aβ 1-40 substrate, however this cannot be confirmed by the anti-Aβ 40 fragment antibody. On the other hand, low-molecular weight peptides (in which several amino acids have shifted) can be confirmed by anti-Aβ-N-terminus antibody regarding the Aβ 1-42 substrate, however this cannot be confirmed by the anti-Aβ 42 fragment antibody.

synthetic Aβ 1-40 = experiment: Carboxypeptidase digestion of synthetic Aβ 1-40 (Western blot); format: biochemical; conditions: 0.01 pM to 0.2 pM enzyme, 0.1 pM substrate, 37° C., 16 hours
Excerpt: as §1

natural brain APP = experiment: Proteolysis of natural brain APP by the isolated 40 kDa protease (Western blot); format: biochemical, human; conditions: 0.1 pmol APP, 0.005 to 0.1 pmol protease, 37° C., 3 h, 1 mM Zn2+; generates 5.5 kDa fragment
Protocol: In the proteolytic analysis of the fractions for natural brain APP, approximately 0.1 pmol of natural brain APP prepared from human hippocampus was incubated at 37° C. for 3 h with each fraction (approximately 0.05 pmol) in the presence of 1 mM Zn^2+. To obtain proteolytic activities of interest, each reaction mixture was loaded in parallel wells for SDS-PAGE then subjected to Western blot analysis using anti Aβ 1/14 antibody (Calbiochem) as follows.
After separation of proteins by SDS-PAGE, proteins on the gel was blotted onto a Hybond C nitrocellulose membrane (Amersham Pharmacia, UK), after which non-specific binding was blocked by immersing the membrane in 5% bovine serum albumin for 1 h in Tris-buffered saline: 100 mM Tris-HCl (pH 7.5), 140 mM NaCl and 0.1% Tween 20. The membrane next was washed for 45 min with three changes of the above buffer then incubated at 4° C. for 16 h with the first antibody (anti Aβ 1/14 antibody) appropriately diluted with Tris-buffered saline. […] After the washing, signals were detected on X-ray film using an ECL chemiluminescence detection system (Amersham Pharmacia, UK).
The brain APP substrate (approximately 0.1 pmol) was treated with the 40 kDa protease (0.005 to 0.1 pmol) at 37° C. for 3 h in the presence of 1 mM Zn^2+ to analyze the isolated 40 kDa protease. The reaction product analyzed by Western blotting with anti Aβ 1/14 antibody (FIG. 2). […]

## chondroitinase ABC
40 kDa protease; APP pretreated with 0.5 pmol chondroitinase ABC, FIG. 2 lane 3
  inhibition of brain APP degradation reaction: almost completely inhibited

## potato carboxypeptidase inhibitor: potato carboxypeptidase inhibitor (BioPur, Switzerland) (QQHADPICNKPCKTHDDCSGAWFCQACWNSARTCGPYVG)
40 kDa protease; 1 mM potato carboxypeptidase inhibitor, 1 mM Zn2+, FIG. 2 lane 4
  inhibition of brain APP degradation reaction: completely inhibited

B1: fraction 11: native-PAGE fraction of about 30 kDa with proteolytic activity; mature form of HBCPB (protein)
chain: ASASYYEQYHSLNEIYSWIEFITERHPDMLTKIHIGSSFEKYPLYVLKVSGKEQTAKNAIWIDCGIHAREWISPAFCLWFIGHNRMWRKNRSFYANNHCIGTDLNRNFASKHWCEEGASSSSCSETYCGLYPESEPEVKAVASFLRRNINQIKAYISMHSYSQHIVFPYSYTRSKSKDHEELSLVASEAVRAIEKTSKNTRYTHGHGSETLYLAPGGGDDWIYDLGIKYSFTSNPPVEKLLPLSLK
[1]; 2 w at −20° C.
  activity after long-term storage: lost its activity
[1]; room temperature
  time to loss of proteolytic activity: ≤ 30 min

B2: 40 kDa protein: 40 kDa protease purified from human hippocampal homogenate; brain carboxypeptidase B (SEQ ID NO: 2) (protein, listed as Homo sapiens)
chain: MKLCSLAVLVPIVLFCEQHVFAFQSGQVLAALPRTSRQVQVLQNLTTTYEIVLWQPVTADLIVKKKQVHFFVNASDVDNVKAHLNVSGIPCSVLLADVEDLIQQQISNDTVSPRASASYYEQYHSLNEIYSWIEFITERHPDMLTKIHIGSSFEKYPLYVLKVSGKEQTAKNAIWIDCGIHAREWISPAFCLWFIGHNRMWRKNRSFYANNHCIGTDLNSNFVSKHWCEEGASSSSCSETYCGLYPESEPEVKAVASFLRRNINQIKAYISMHSYSQHIVFPYSYTRSKSKDHEELSLVASEAVRAIDKTSKNTRYTHGHGSETLYLAPGGGDDWIYDLGIKYSFTSNPPVEKLLPLSLK
Synthetic Aβ 1-42
  formation of low-molecular weight peptides from Aβ 1-42: low-molecular weight peptides formed in a dose-dependent manner
Synthetic Aβ 1-40
  formation of low-molecular weight peptides from Aβ 1-40: low-molecular weight peptides formed in a dose-dependent manner
Natural brain APP
  degradation of natural brain APP: degraded natural brain APP
